# Data from the RNAGym collection of RNA variant scans (doi:10.7554/elife.80360).
# B1: Hammerhead Ribozyme (parent)
# chain: ACCGGAUGUGCUUUCCGGUCUGAUGAGUCCGUGAGGACGAAACAG
# Variants of: B1
# Test: self-cleavage, relative activity (ratio to wild type); higher = more cleavage; co-transcriptional
row,Variant,self-cleavage
1,U21C C43G,0.415
2,U21C C43U,0.487
3,U21C G22A,0.335
4,U21C G22C,0.39
5,U21C G22U,0.277
6,U21C G25A,0.336
7,U21C G25C,0.308
8,U21C G25U,0.342
9,U21C G27A,0.597
10,U21C G27C,0.557
11,U21C G27U,0.361
12,U21C G31A,0.974
13,U21C G31C,0.678
14,U21C G31U,0.83
15,U21C G33A,0.74
16,U21C G33C,0.756
17,U21C G33U,0.795
18,U21C G35A,0.741
19,U21C G35C,0.681
20,U21C G35U,0.727
21,U21C G36A,0.718
22,U21C G36C,0.366
23,U21C G36U,0.665
24,U21C G39A,0.304

row,Variant,self-cleavage
1,U21C G39C,0.378
2,U21C G39U,0.34
3,U21C G45A,0.436
4,U21C G45C,0.416
5,U21C G45U,0.553
6,U21C U24A,1.13
7,U21C U24C,0.909
8,U21C U24G,1.07
9,U21C U28A,0.573
10,U21C U28C,0.977
11,U21C U28G,0.703
12,U21C U32A,0.71
13,U21C U32C,0.96
14,U21C U32G,0.947
15,U21G,0.706
16,U21G A23C,0.36
17,U21G A23G,0.387
18,U21G A23U,0.448
19,U21G A26C,0.237
20,U21G A26G,0.343
21,U21G A26U,0.431
22,U21G A34C,0.278
23,U21G A34G,0.602
24,U21G A34U,0.348

row,Variant,self-cleavage
1,U21G A37C,0.427
2,U21G A37G,0.454
3,U21G A37U,0.417
4,U21G A40C,0.312
5,U21G A40G,0.345
6,U21G A40U,0.331
7,U21G A41C,0.404
8,U21G A41G,0.29
9,U21G A41U,0.333
10,U21G A42C,0.393
11,U21G A42G,0.223
12,U21G A42U,0.36
13,U21G A44C,0.285
14,U21G A44G,0.697
15,U21G A44U,0.285
16,U21G C29A,0.3
17,U21G C29G,0.285
18,U21G C29U,0.471
19,U21G C30A,0.419
20,U21G C30G,0.373
21,U21G C30U,0.837
22,U21G C38A,0.388
23,U21G C38G,0.303
24,U21G C38U,0.374

row,Variant,self-cleavage
1,U21G C43A,0.346
2,U21G C43G,0.324
3,U21G C43U,0.317
4,U21G G22A,0.324
5,U21G G22C,0.292
6,U21G G22U,0.426
7,U21G G25A,0.349
8,U21G G25C,0.361
9,U21G G25U,0.373
10,U21G G27A,0.39
11,U21G G27C,0.4
12,U21G G27U,0.296
13,U21G G31A,0.797
14,U21G G31C,0.577
15,U21G G31U,0.743
16,U21G G33A,0.704
17,U21G G33C,0.867
18,U21G G33U,0.798
19,U21G G35A,0.28
20,U21G G35C,0.306
21,U21G G35U,0.413
22,U21G G36A,0.382
23,U21G G36C,0.365
24,U21G G36U,0.333

row,Variant,self-cleavage
1,U21G G39A,0.354
2,U21G G39C,0.314
3,U21G G39U,0.37
4,U21G G45A,0.4
5,U21G G45C,0.278
6,U21G G45U,0.281
7,U21G U24A,0.814
8,U21G U24C,0.391
9,U21G U24G,0.536
10,U21G U28A,0.4
11,U21G U28C,0.381
12,U21G U28G,0.564
13,U21G U32A,0.389
14,U21G U32C,0.523
15,U21G U32G,0.549
16,G22A,0.356
17,G22A A23C,0.224
18,G22A A23G,0.313
19,G22A A23U,0.343
20,G22A A26C,0.316
21,G22A A26G,0.269
22,G22A A26U,0.338
23,G22A A34C,0.286
24,G22A A34G,0.365

row,Variant,self-cleavage
1,G22A A34U,0.309
2,G22A A37C,0.304
3,G22A A37G,0.285
4,G22A A37U,0.288
5,G22A A40C,0.371
6,G22A A40G,0.297
7,G22A A40U,0.366
8,G22A A41C,0.383
9,G22A A41G,0.365
10,G22A A41U,0.318
11,G22A A42C,0.335
12,G22A A42G,0.351
13,G22A A42U,0.321
14,G22A A44C,0.372
15,G22A A44G,0.672
16,G22A A44U,0.314
17,G22A C29A,0.342
18,G22A C29G,0.332
19,G22A C29U,0.279
20,G22A C30A,0.392
21,G22A C30G,0.343
22,G22A C30U,0.417
23,G22A C38A,0.327
24,G22A C38G,0.329

row,Variant,self-cleavage
1,G22A C38U,0.328
2,G22A C43A,0.411
3,G22A C43G,0.288
4,G22A C43U,0.318
5,G22A G25A,0.377
6,G22A G25C,0.329
7,G22A G25U,0.376
8,G22A G27A,0.342
9,G22A G27C,0.39
10,G22A G27U,0.28
11,G22A G31A,0.337
12,G22A G31C,0.396
13,G22A G31U,0.427
14,G22A G33A,0.353
15,G22A G33C,0.317
16,G22A G33U,0.3
17,G22A G35A,0.336
18,G22A G35C,0.294
19,G22A G35U,0.328
20,G22A G36A,0.361
21,G22A G36C,0.309
22,G22A G36U,0.344
23,G22A G39A,0.367
24,G22A G39C,0.385

row,Variant,self-cleavage
1,G22A G39U,0.325
2,G22A G45A,0.369
3,G22A G45C,0.436
4,G22A G45U,0.383
5,G22A U24A,0.378
6,G22A U24C,0.311
7,G22A U24G,0.363
8,G22A U28A,0.326
9,G22A U28C,0.294
10,G22A U28G,0.37
11,G22A U32A,0.306
12,G22A U32C,0.29
13,G22A U32G,0.264
14,G22C,0.336
15,G22C A23C,0.28
16,G22C A23G,0.312
17,G22C A23U,0.351
18,G22C A26C,0.3
19,G22C A26G,0.253
20,G22C A26U,0.343
21,G22C A34C,0.283
22,G22C A34G,0.306
23,G22C A34U,0.318
24,G22C A37C,0.286

row,Variant,self-cleavage
1,G22C A37G,0.416
2,G22C A37U,0.259
3,G22C A40C,0.339
4,G22C A40G,0.351
5,G22C A40U,0.342
6,G22C A41C,0.321
7,G22C A41G,0.31
8,G22C A41U,0.416
9,G22C A42C,0.309
10,G22C A42G,0.265
11,G22C A42U,0.368
12,G22C A44C,0.369
13,G22C A44G,0.672
14,G22C A44U,0.323
15,G22C C29A,0.296
16,G22C C29G,0.266
17,G22C C29U,0.3
18,G22C C30A,0.346
19,G22C C30G,0.351
20,G22C C30U,0.36
21,G22C C38A,0.329
22,G22C C38G,0.386
23,G22C C38U,0.315
24,G22C C43A,0.23

row,Variant,self-cleavage
1,G22C C43G,0.24
2,G22C C43U,0.391
3,G22C G25A,0.409
4,G22C G25C,0.319
5,G22C G25U,0.432
6,G22C G27A,0.359
7,G22C G27C,0.311
8,G22C G27U,0.352
9,G22C G31A,0.25
10,G22C G31C,0.37
11,G22C G31U,0.309
12,G22C G33A,0.266
13,G22C G33C,0.381
14,G22C G33U,0.374
15,G22C G35A,0.337
16,G22C G35C,0.336
17,G22C G35U,0.303
18,G22C G36A,0.317
19,G22C G36C,0.317
20,G22C G36U,0.322
21,G22C G39A,0.364
22,G22C G39C,0.375
23,G22C G39U,0.286
24,G22C G45A,0.328

row,Variant,self-cleavage
1,G22C G45C,0.424
2,G22C G45U,0.384
3,G22C U24A,0.365
4,G22C U24C,0.348
5,G22C U24G,0.281
6,G22C U28A,0.351
7,G22C U28C,0.298
8,G22C U28G,0.293
9,G22C U32A,0.371
10,G22C U32C,0.335
11,G22C U32G,0.315
12,G22U,0.362
13,G22U A23C,0.284
14,G22U A23G,0.297
15,G22U A23U,0.307
16,G22U A26C,0.345
17,G22U A26G,0.346
18,G22U A26U,0.315
19,G22U A34C,0.267
20,G22U A34G,0.308
21,G22U A34U,0.327
22,G22U A37C,0.3
23,G22U A37G,0.417
24,G22U A37U,0.296

row,Variant,self-cleavage
1,G22U A40C,0.368
2,G22U A40G,0.288
3,G22U A40U,0.332
4,G22U A41C,0.372
5,G22U A41G,0.311
6,G22U A41U,0.353
7,G22U A42C,0.359
8,G22U A42G,0.285
9,G22U A42U,0.36
10,G22U A44C,0.432
11,G22U A44G,0.711
12,G22U A44U,0.335
13,G22U C29A,0.299
14,G22U C29G,0.317
15,G22U C29U,0.251
16,G22U C30A,0.296
17,G22U C30G,0.277
18,G22U C30U,0.344
19,G22U C38A,0.305
20,G22U C38G,0.33
21,G22U C38U,0.335
22,G22U C43A,0.293
23,G22U C43G,0.348
24,G22U C43U,0.305

row,Variant,self-cleavage
1,G22U G25A,0.269
2,G22U G25C,0.264
3,G22U G25U,0.303
4,G22U G27A,0.305
5,G22U G27C,0.347
6,G22U G27U,0.273
7,G22U G31A,0.397
8,G22U G31C,0.303
9,G22U G31U,0.318
10,G22U G33A,0.307
11,G22U G33C,0.363
12,G22U G33U,0.416
13,G22U G35A,0.335
14,G22U G35C,0.311
15,G22U G35U,0.366
16,G22U G36A,0.316
17,G22U G36C,0.363
18,G22U G36U,0.301
19,G22U G39A,0.35
20,G22U G39C,0.316
21,G22U G39U,0.305
22,G22U G45A,0.345
23,G22U G45C,0.348
24,G22U G45U,0.428

row,Variant,self-cleavage
1,G22U U24A,0.316
2,G22U U24C,0.348
3,G22U U24G,0.361
4,G22U U28A,0.326
5,G22U U28C,0.312
6,G22U U28G,0.294
7,G22U U32A,0.282
8,G22U U32C,0.272
9,G22U U32G,0.299
10,A23C,0.547
11,A23C A26C,0.376
12,A23C A26G,0.212
13,A23C A26U,0.33
14,A23C A34C,0.374
15,A23C A34G,0.342
16,A23C A34U,0.298
17,A23C A37C,0.384
18,A23C A37G,0.237
19,A23C A37U,0.42
20,A23C A40C,0.31
21,A23C A40G,0.351
22,A23C A40U,0.243
